# Measured values reported in article PMC9324194.
# Molecular target: Cy3-APE1 (human) (UniProt P27695)
# Assay: FRET titration
# Settings: N1 = tetrahydrofuran (THF), EMSA: 2 uM protein and DNA, 20 mM potassium phosphate pH 7.0, 50 mM NaCl, 5 mM MgCl2, 2 mM DTT, 0.01% Tween-20, 30 min room temperature, gel at 4 °C
# Sequence of UniProt P27695 (P27695 whole entry): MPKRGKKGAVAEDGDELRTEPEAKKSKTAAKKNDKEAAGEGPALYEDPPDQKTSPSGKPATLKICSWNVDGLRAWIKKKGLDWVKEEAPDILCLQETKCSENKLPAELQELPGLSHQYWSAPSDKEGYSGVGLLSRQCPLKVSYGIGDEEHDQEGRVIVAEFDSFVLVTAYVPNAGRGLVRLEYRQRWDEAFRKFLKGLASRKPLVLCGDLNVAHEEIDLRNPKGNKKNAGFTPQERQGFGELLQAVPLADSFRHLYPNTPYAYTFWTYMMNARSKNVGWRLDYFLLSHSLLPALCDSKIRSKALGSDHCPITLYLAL
sequence,measurement,value
NCGGTCGATCGTAAGATCGACCGTGCGCTGGAGCTTGCTCCAGCGC [Cy5-P (Cy5-labelled product)],Kd,5 nM
